Measured values from patent US20230104217A1.

Tests used:
[1] = target: Human IL-2 R alpha protein, His Tag (Acro, ILA-H52H9) (human) (UniProt P01589); assay: BLI; conditions: ligand
[2] = target: Human IL-2 R beta protein, His-Tag (Acro, CD2-H5221) (human) (UniProt P14784); assay: BLI; conditions: ligand
Sequence of UniProt P14784 (P14784 27-239): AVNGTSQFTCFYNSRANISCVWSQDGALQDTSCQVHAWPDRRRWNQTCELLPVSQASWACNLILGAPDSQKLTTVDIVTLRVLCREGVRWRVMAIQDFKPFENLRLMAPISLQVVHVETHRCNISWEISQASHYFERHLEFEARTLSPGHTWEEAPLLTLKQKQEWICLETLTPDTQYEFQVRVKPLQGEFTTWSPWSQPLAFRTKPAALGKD

Sequence of UniProt P01589 (P01589 22-213): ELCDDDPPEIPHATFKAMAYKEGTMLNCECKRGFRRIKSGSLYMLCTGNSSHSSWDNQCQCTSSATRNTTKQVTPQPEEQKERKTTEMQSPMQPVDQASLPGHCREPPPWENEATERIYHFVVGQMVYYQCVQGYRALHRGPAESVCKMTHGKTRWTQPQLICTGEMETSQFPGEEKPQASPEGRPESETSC

Kd [1]: 0.0013 µM
Kd [2]: 0.0917 µM
Substance: Proleukin (Novartis, hIL-2) (from UniProt P60568 22-153)
